This is an account of results in the nanobody polyreactivity screen of Harvey et al. (2022).

This data set is described as follows: yeast display, Sf9 membrane polyspecificity reagent, FACS + sequencing; frameworks hold sequencing errors. Summed up: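 Galactose-induced (36–48 hours) yeast carrying a synthetic nanobody display library were exposed to 10% biotinylated, detergent-solubilized Sf9 membrane reagent at 4 °C for 1 hour. FACS followed streptavidin microbead enrichment, using low and high (top ~1%) gates for expression (anti-HA) and reagent binding (streptavidin). Colony PCR, MiSeq 2 × 250 sequencing and CDR-length filtering followed. Labels for polyreactivity reflect the gate of origin.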
Take “QVQLVESGGGLVQAGGSLRLSCAASGSTFWLYAMGWYRQAPGKERELVAAIRSGDRTNYADSVKGRFTISRDNAKHTVYLQMNSLKPEDTAVYYCAVRRWGTSFVEDDYWGQGTQVTVSS”: the “polyreactivity (PSR sort gate)” value was “low polyreactivity”.
In the case of “QVQLVESGGGLVQAGGSLRLSCAASGSIFLIYDMGWYRQAPGKEMELVAAISNSVGSTYADSVKGRFTISRDNAKNTVYLQINSLKPEDTAVYYCNADSGPIDGRGGYWGQGTQVTVSS”, the “polyreactivity (PSR sort gate)” value is on record as “low polyreactivity”.
With “QVQLVESGGGLVQAGGSLRLSCAASGYTFYFYAMGWYRQAPGKEREFVAAIRSSGGRTYYADSVKGRFTISRDNAKNTVYLQMNSLKPEDTAVYYCAAAGYYYSVDGAGPRYDYWGQGTQVTVSS”, the “polyreactivity (PSR sort gate)” value is listed as “low polyreactivity”.
With “QVQLVESGGGLVQAGGSLRLSCAASGRIFGTYAMGWYRQAPGKERELVAAITQSGGSTYYADSVKGRFTISRDNAKNTVYLQMNSLKPEDTAVYYCKLVKTTSTLGKRRYDYWGQGTQVTVSS”, the “polyreactivity (PSR sort gate)” value is “high polyreactivity”.
For “QVQLVESRGGLVQARGSLRLSCAASGSTFVYYALGWYRTAPGTERELVAAITQRGGNTYYADSVKGRFTISRDNAKNTVYLQMNSLKPVDTAVYYCATKSYSQYFKFYYWGQGTQVTVSS”, the “polyreactivity (PSR sort gate)” value is on record as “high polyreactivity”.
In the case of “QVQLVESGGGLVQAGGSLRLSCAASGSTFRYYAMGWYRQAPGKERELVAAITKNGGSTYYADSVKGRFTISRDNAKNTVYLQMNSLKPEDTAVYYCADQYSYSGWYYVSYYYWGQGTQVTVSS” it was “high polyreactivity”; in that of “QVQLVESGGGLVQAGGSLRLSCAASGSIFGWYAMGWYRQAPGKERELVASIRKSGGSTYYADSVKGRFTISRDNAKNTVYLQMNSLKPEDTAVYYCAAERYKNGAGQRKYAYDYWGQGTQVTVSS”, “high polyreactivity”; in that of “QVQLVESGGGLVQAGGSLRLTCAASGFIFPLYTMGWYRQAPGKERELVAAITGSGGSTYYADSVKGRFTISRDNAKNTVYLQMNSLKPEDTAVYYCAKDYTYGMDWGQGTQVTVSS”, “low polyreactivity”.
In the case of “QVQLVESGGGLVQAGGSLRLSCAASGSTFQTYARGWYRQAPGKERELVASIDYSGGSTYYADSVKGRFTISRDNAKNTVYLQMNSLKPEDTAVYYCAKALSQTWYDGQYGYWGQGTQVTVSS” it was “low polyreactivity”.
For the sequence “QVQLVESGGGLVQAGGSLRLSCAASGITFNGYAMGWYRQAPGKERELVAAISSSGGRTRYADSVKGRFTISRDNAKNTVYLQMNSLKPEDTAVYYCNARGYGQSNYWGQGTQVTVSS”, the “polyreactivity (PSR sort gate)” value was “high polyreactivity”.
In the case of “QVQLVESGGGLVQAGGSLRLSCAASGFTFVGNAMGWSRQAPGKERELVAAIRWSSGSTYYADSVKGRFTISRDNAKNTVYLQMNSLKPEDTAVYYCAADYWTGITPDAIGDYWGQGTQVTVSS”, the “polyreactivity (PSR sort gate)” value is listed as “low polyreactivity”.
“QVQLVESGGGLVQAGGSLRLSCAASGSIFRGYTMGWYRQAPGKERELFAAISTRGGSTYYADSVKGRFTISRDNAKNTVYLQMNSLKPEDTAVYYCNARSRGRASGYDYWGQGTQVTVSS”: the “polyreactivity (PSR sort gate)” value is “high polyreactivity”.
To “QVQVVESGGGLVQAGGSLRLSCAASGSIIYYYAMGWYRQAPGKERELVARISWNGGSTYYADSVKGRFTISRDNAKNTVYLQMNSLKPEDNAVYYCAARPWHHYYWGQGTQVTVSS” belongs “high polyreactivity”.
Take “QVQLVESGGGLVQAGGSLRVSCAASGSTFNINAMGWYREAPGKERELVAAISSGGSTNYADSVKGRFTISRDNAKNTVYLQMNSLKPEDTAVYYCNADFILSGWWGIVGYDYWGQGTQVTVSS”: the “polyreactivity (PSR sort gate)” value is on record as “low polyreactivity”.
To “QVQLVESGGGLVQAGGSLLLSCAASGFIFAGYAMGWYRQAPGKERELVAPISKRGGTTYYADSVKGRFTISRDNAKNTVYLQMNSLKPEDTAVYYCNAKRTYRVVWASSYEYDYWGQGTQVTVSS” belongs “high polyreactivity”.
On to “HVQLVESGGGLVQAGGSLRLSCAASGTFYKNAMGWYRQAPGKERELVAAISWRGGRTYADSVKGRFTISRDNAKNSVYLQMNSLKPEDTAVYYCNKRFYPEHYYWGQGTQVTVSS”, for which the “polyreactivity (PSR sort gate)” value is reported as “high polyreactivity”.
Consider “QVQLVESGGGLVQAGGSLRLSCAASGITFRTNAMGWYRQAPGKERDLVAAIRTGYSTYYADSVKGRFTISRDNAKNPVYLQMNSLKPEDTAVYYCNAVRYSPVFRRKYDYWGQGTQVTVSS”, for which the “polyreactivity (PSR sort gate)” value is given as “high polyreactivity”.
To “QVQLVESGGGLVQAGGSLRLSCAASGRIFTWYAMGWYRQAPGKERELVATISTGGSTNYADSVKGRFTISRDNAKNTVYLQMNSLKPEDTAVYYCAAKWPWSPNAFYYWGQGTQVTVSS” belongs “high polyreactivity”; to “QVQLVESGGGLVQAGGSLRLSCAASGITFSRNGMGWYRQAPGKERELVAAISTSGDSTDYADSVKGRFTISRDNAKNTVYLQMNSLKPEDTAVYYCAASYAFLYYGYDSWGQGTQVTVSS”, “low polyreactivity”; to “QVQLVESGGGLVQAGGSLRLSCAASGRTFGRYAMGWYRQAPGKERELVARIRTSGGRTYYADSVKGRFTISRDIAKNTVYLLMNSLNPEDTAVYYCGTSSQPWYYWSTQGDDFWGQGTQVSVSS”, “low polyreactivity”.
For “QVQLVESGGGLVQAGGSLRLSCAASGRIFQRYAMGWYRQAPGKERELVAAISSSGTTYYADSVKGRFTISRDNAKNTVYLQMNSLKPEDTAVYYCAATYYTSRISRRYGYWGQGTQVTVSS”, the “polyreactivity (PSR sort gate)” value is given as “high polyreactivity”.
Take “QVQLVESGGGLVQAGGSLRLSCAASGSTFFGNAMGWYRQAPGKERELVAAITSGGSTNYADSVKGRFTISRDNAKNTVYLQMNSLKPEDTAVYYCAKEYHYYYWGQGTQVTVSS”: the “polyreactivity (PSR sort gate)” value was “low polyreactivity”.
Take “QVQLVESGGGLVQAGGSLRLSCAASGLIFYDNMGWYRQAPGKERELVAAISSSGGSTSYADSVKGRFTISRDNAKNTVYLQMISLKPEDTAVYYCAADSSPAFLGFVGFEYWGQGTEVTVSS”: the “polyreactivity (PSR sort gate)” value is listed as “low polyreactivity”.
In the case of “QVQLVESGGGLVQAGGSLRLSCAASGITFYFYAMGWSRQAPGKERELVSTISGGGSTSYADSVKGRFTISRDNAKNSVYLQMNSLKPEDTAVYYCAATGYSLRSGKRRPLRSGYYYWGQGTQVTVSW”, the “polyreactivity (PSR sort gate)” value is on record as “high polyreactivity”.
On to “QVQLVESGGGLVQAGGSLRLSFAASGRTFTWNVMGWYRQAPGKERELVAAITTDDRTYADSVKGRFTISRDNAKNTVYLQMNSLKPEDTAVYYCATVVAWSSRPVGEDYWGQGTQVTVSS”, for which the “polyreactivity (PSR sort gate)” value is listed as “low polyreactivity”.
On to “QVQLVESGGGLVQAGGSLRLSCAASGFTFYWYAMGWYRQAPGKEREFVAAIDQSGGSTYYADSVKGRFTISRDNAKNTVYLQMNSLKPEDTAVYYCAAAYLRYVSTQYHYDYWGQGTQVTVSS”, for which the “polyreactivity (PSR sort gate)” value is listed as “low polyreactivity”.
“QVQLQESGGGLVQAGGSLRLSCAASGYISHADEMGWYRQAPGKDHELVASISNGGSTNYADSVKGRFTISRDHAKNTVYLQMNSLNSEDTAVYYCAAWTGQVDIHYYWGQGTQVTVSS”: the “polyreactivity (PSR sort gate)” value is recorded as “low polyreactivity”.
Consider “QVQLVESGGGLVQPGGSLRLSCAASGRTFGYNAMGWYRQAPGKERELVAAIRYSGGSTYYADSVKGRFTISRDNAKNTVYLQMNSLKPEDTAVYYCAAYSLFSSYGNDYWGQGTQVTVSS”, for which the “polyreactivity (PSR sort gate)” value was “high polyreactivity”.
As to “QVQLVESGGGLVQAGGSLRLSCAASGRTIVAYAMGWYRQAPGKERELVAAISWSTGSTYYADSVKGRFTISRDNAKNTVYLQMNSLKPEDTAVYYCAGLVWAPRDYWGQGTQVTVSS”, the “polyreactivity (PSR sort gate)” value is reported as “low polyreactivity”.
With “QGQLVESGGGLVQAGGSLRLSCAASGFTSSRNAMGWYIQEAGKERELVATISSGGDTYYADSVKGRFTISRDNAKNTVYLQMNSLKPEDTAVYYCNKDPLYAWGYDYWGQGTQVTVSS”, the “polyreactivity (PSR sort gate)” value is on record as “low polyreactivity”.
In the case of “QVQLVESGGGLVQAGGSLRLSCAASGYTFGSYAMGWYRQAPGKERELVAAISKRGGRTYYADSVKGRFTISRDNAKNTVYLQMNSLKPEDTAVYYCAKDYPKYDYWGQGTQVTVSS” it was “high polyreactivity”; in that of “QVQLVESGGGLVQAGGSLRLSCAASGITLLYNAMGWYRQAPGKERELVAGITGRGGSTYYADSVKGRFTISRDNAKNTVSLQMNSLKPEDNAVYYCAATTDYRYVGRIVIRDDHWGQGTQVTVSS”, “low polyreactivity”.
As to “QVQLVESGGGLVQAGGSLRLSCAASGSIFRSYGMGWYRQAPGKDRELVPSISRRGGSTYYADSVKGRFTISRDNAKNTVYLQTNSLKPEDTAVYYCAAVRYNSRVSTTPSEMYYWGQGTQVTVSS”, the “polyreactivity (PSR sort gate)” value was “low polyreactivity”.
Regarding “QVQLVESGGGLVQAGGSLRLSCAASGFTIWQNAMGWYRQAPGKERELVAGIRLSGGSTYADSVKGRFTISRDNAKNTVYLQMNSLKPEDTAVYYCAARIAGYYRYRYSYGYWGQGTQVTVSS”, the “polyreactivity (PSR sort gate)” value is listed as “high polyreactivity”.
As for “QVQLQESGGGLVQVGGSQRLSCAASGNIFYNYAMGWYRHAQGKEREFDATINHGTSINYADSVKGRFTISRDNAKNTVYLQMNSLKPEDTAVYYCAADLSWTDNLFYWGQGTQVTVIS”, the “polyreactivity (PSR sort gate)” value is given as “low polyreactivity”.
In the case of “QVQLVESGGCLVQAGGSLRLSCAASGSIFVSYAMGWYRQAPGTERELVAAITGRTGSTYYADSVKGRFTISRDNAQNTVYLQMNSLKPEDTEVYYCAARHKPHHRYDYWGQGTQVTVSS” it was “low polyreactivity”; in that of “QVQLVESGGGLVQAGGSLRLSCAASGRIFVVNAMGWYRQAPGNERELVAAISSSSDSTYYADSVKGRCTISRDNAKNTVYLQMNSLKPEDTAVYYCAADYHYDGYWIYDYWGQGTQVTVSS”, “high polyreactivity”.
Regarding “QVQLVESGGGLVQAGGSLRLSCAASGITFGRNTMGWYRQAPGKERELVAAIRSGGSTNYADSVKGRFSISRDNAKNTVYLLMNSLKPEDPAVYYWNAQPWVRFWPYDYWGQGTQVTVSS”, the “polyreactivity (PSR sort gate)” value is on record as “low polyreactivity”.
To “QVQLVESGGGLVQAGCSLRLSCAASGNTYYSYTMGWYRQAPGKERELVAAITGSGSTYYADSVKGRFTISRDNAKNTVYLQMNSLKPEDTAVYYCASRYVERHTDYYYWGQGTQVTVSS” belongs “low polyreactivity”; to “QVQLVESGGGLVQAGGSLRLSCAASGFIFRYYAMGWYRQAPGKERELVATISYRGASTYYADSVKGRFTISRDNAKNTVYLQMNSLKPEDTAVYYCAADWGWYWYIYDYWGQGTQVTVSS”, “low polyreactivity”; to “QVHLVESGGGLVQAGGSLRLSCAASGFTFLVYAMRWYRKAPGKEREFVAAMNWSGDRTYYADSVKGLFTISREYAKNTVYLQMNSVKTEDTAVYYCAAVDYVYPQAYGYWGQGTQVTVSS”, “low polyreactivity”.
